Measured values taken from patent publication US20130045267A1, “METHODS OF USING AGENTS THAT MODULATE CLAUDIN EXPRESSION” (priority 2010, published 2013).
Values joined by “and” are separate entries in the source; they are usually repeats but may differ in a detail not shown here. Equal values may be shown once.

Experiments:
HSV-1 strain F [1] = experiment: HSV-1 fluorescent-focus assay in PHK; format: cell-based, Herpes Simplex Virus (HSV)-1; settings: siRNA 100 nM, MOI 0.1, 24 h, n=6
Description: Infection studies were performed using the highly virulent HSV-1 strain F (provided by Dr. D.C. Johnson). Twenty-four to 48 h post-transfection with 100 nM claudin-1 or control siRNA, the cells were differentiated in DMEM with 10% heat-inactivated FBS for 24 h. Cells were washed twice with HBSS and infected with HSV-1 strain F at a multiplicity of infection (MOI) of 0.1 in DMEM containing 1% heat-inactivated FBS at 37° C., with rocking every 15 min. After 2 h, the viral inoculum was removed, and the cells were washed 2× with HBSS and incubated in DMEM containing 5% HI-FBS and 0.4% human-γ-globulin (Sigma; final concentration 0.5 mg/ml) for 24 hr to neutralize any extracellular virus.
HSV-infected PHK were washed 2× with PBS and fixed in 4% formaldehyde/PBS for 20 min at room temperature. A polyclonal rabbit anti-HSV-1 (Dako) antibody diluted 1:500 in PBS/1% BSA was placed on the PHK for 1 h at 37° C. followed by Alexa Fluor 488 donkey-anti-rabbit IgG H+L (1:1000, Molecular Probes) and 4′,6-diamidino-2-phenyl-indole, dihydrochloride (DAPI) (1:10,000, Molecular Probes). Coverslips were mounted onto slides with SlowFade (Molecular Probes). […] Images were stored in Portable Network Graphics (PNG) format and analyzed computationally to objectively quantify differences in focal forming units (FFU). […] Cell density was calculated by counting the number of DAPI labeled nuclei, assigned to the blue channel. Images were analyzed using MATLAB to enumerate FFU, and total cell number. […]
The MOI was chosen based on findings from viral titration (0.01 to 10 MOI) studies on differentiated and undifferentiated PHK, respectively, used as negative and positive controls. […] For each sample, six random fields were captured at identical acquisition settings and analyzed computationally to objectively quantify differences in focal forming units (FFU). […] An average of 4.8±0.7 FFU/field were counted in CLDN1 knockdown PHK, while only 2.5±0.5 FFU/field were detected in the control cells (P=0.05; n=6; FIG. 15C). Adapted Fluorospot software was used to semi-quantify differences in dimensions of each FFU. […]

occludin = experiment: Western blot of occludin after CLDN1 siRNA in PHK; format: cell-based, human; settings: 48 h
Description: PHK were lysed on ice in RIPA lysis buffer (20 mM Tris, 50 mM NaCl, 2 mM EDTA, 2 mM EGTA, 1% sodium deoxycholate, 1% TX-100, and 2% SDS, pH 7.4), with 1:100 Protease Inhibitor Cocktail (Sigma), 1:100 Phosphatase Inhibitor Cocktail ([…] for 30 min at 4° C. The samples were heated at 95° C. for 10 min and then centrifuged at 14,000 rpm for 15 min. Forty μg of protein, determined by BCA (Pierce) in NuPage LDS Sample Buffer (Invitrogen) was applied to 4-12% NuPage Bis-Tris gels (Invitrogen). Electrophoresis was performed under reducing conditions with MES SDS Buffer (Invitrogen). Membranes were incubated in blotting solution (5% non-fat dry milk in PBS+0.05% Tween 20) at RT for 1 h and then incubated with primary antibodies; claudin-1 (JAY.8; Zymed), occludin (OC/3F10; Zymed) and GAPDH (FL-355; Santa Cruz). An HRP-linked secondary antibody (GE Healthcare) was used with ECL (GE Healthcare) to visualize bands by autoradiography with Kodak BioMax MR film. The pixel intensity of each band was estimated with Image J.
PHK were plated on glass coverslips at 2-3×10^5 cells/well in a 6-well plate or at 2-3×10^4 cells/filter in Transwell insert (Costar; PET membrane, 0.4 μm pore size, 6.5 mm insert) in Keratinocyte-SFM without antibiotics. […]

HSV-1 strain F [2] = experiment: Infectious center assay; format: cell-based, Herpes Simplex Virus (HSV)-1; settings: 24 h post-infection, n=3
Description: Twenty-four hours post-infection, PHK were treated with 0.05% Trypsin-EDTA (Invitrogen/Gibco) for 5 min at 37° C. followed by gently scraping to lift the cells, washed 3 times in DMEM containing 1% HI-FBS, and vortexed for 30 sec to disrupt cell clumps. Alive cells were counted using Trypan blue exclusion and scalar PHK dilutions (1000 to 1 cells in 1 ml of media) were plated onto pre-grown monolayers of Vero cells in six well plates. After 2 h, 1 ml of DMEM containing 5% HI-FBS and 0.4% human-γ-globulin (Sigma; final concentration 0.5 mg/ml) was added to each well. After 3 days incubation at 37° C., cells were fixed (75% MeOH/25% acetic acid) and stained with 0.1% crystal violet. Plaques were counted by 2 independent investigators and results expressed as percent of infected PHK.

B1: CLDN1 siRNA: claudin-1 specific siRNA (Santa Cruz), a pool of 3 separate strands, SEQ ID NO: 10-15 (nucleic acid)
chain 1: UACAUAGGCAUAGUUCAUGNN
chain 2: CAUGAACUAUGCCUAUGUANN
chain 3: AACGUAUGCAGUUAAUUCCNN
chain 4: GGAAUUAACUGCAUACGUUNN
chain 5: UGAAGAUCUAUGUAUGUGGNN
chain 6: CCACAUACAUAGAUCUUCANN
modifications: chemistry not given here
FFU area (HSV-1 strain F [1]): 15649±4367 pixels
HSV-1 focal forming units (HSV-1 strain F [1]): 4.8±0.7 FFU/field
diameter of the major axis of FFU (HSV-1 strain F [1]): 207±22 μm and 207±21 μm
occludin protein by Western blot (occludin): No change
PHK infected with HSV-1 (HSV-1 strain F [2]): 38±6% and 38±6.43%
